Measurements reported in paper PMC10397247.

What was measured:
Test in all cases: two-hybrid library CCNG1;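 note: natural log of median RNA to DNA barcode read ratio; higher means stronger binding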
[1] = biological target: T1, 4H754-bA
T1 chain: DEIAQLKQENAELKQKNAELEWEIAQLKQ

[2] = biological target: T2, 4H72-bA
T2 chain: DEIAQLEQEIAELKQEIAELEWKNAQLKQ

[3] = biological target: T3, 4H568-bA
T3 chain: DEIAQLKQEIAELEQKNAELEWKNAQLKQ

[4] = biological target: T4, 4H3354-bA
T4 chain: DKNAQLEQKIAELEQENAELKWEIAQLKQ

[5] = biological target: T5, 4H953-bA
T5 chain: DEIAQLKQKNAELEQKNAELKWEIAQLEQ

[6] = biological target: T6, 4H338-bA
T6 chain: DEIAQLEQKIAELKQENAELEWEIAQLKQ

[7] = biological target: T7, 4H797-bA
T7 chain: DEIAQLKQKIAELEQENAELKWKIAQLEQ

[8] = biological target: T8, 4H967-bA
T8 chain: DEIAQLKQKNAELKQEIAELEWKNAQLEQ

[9] = biological target: T9, 4H883-bA
T9 chain: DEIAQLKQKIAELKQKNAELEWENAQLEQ

[10] = biological target: T10, 4H3782-bA
T10 chain: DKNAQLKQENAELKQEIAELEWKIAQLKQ

[11] = biological target: T11, 4H3185-bA
T11 chain: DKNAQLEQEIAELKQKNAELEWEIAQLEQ

[12] = biological target: T12, 4H3497-bA
T12 chain: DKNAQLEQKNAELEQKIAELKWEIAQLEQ

[13] = biological target: T13, 4H2442-bA
T13 chain: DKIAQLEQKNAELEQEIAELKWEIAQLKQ

[14] = biological target: T14, 4H454-bA
T14 chain: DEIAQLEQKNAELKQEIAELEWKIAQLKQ

[15] = biological target: T15, 4H2667-bA
T15 chain: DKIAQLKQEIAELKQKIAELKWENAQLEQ

[16] = biological target: T16, 4H908-bA
T16 chain: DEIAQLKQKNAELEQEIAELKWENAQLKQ

[17] = biological target: T17, 4H4001-bA
T17 chain: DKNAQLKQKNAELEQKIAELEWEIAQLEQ

[18] = biological target: T18, 4H3855-bA
T18 chain: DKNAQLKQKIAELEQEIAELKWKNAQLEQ

[19] = biological target: T19, 4H2576-bA
T19 chain: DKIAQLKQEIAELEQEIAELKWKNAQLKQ

[20] = biological target: T20, 4H2618-bA
T20 chain: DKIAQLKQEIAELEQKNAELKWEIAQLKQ

[21] = biological target: T21, 4H918-bA
T21 chain: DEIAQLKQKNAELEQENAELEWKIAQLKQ

[22] = biological target: T22, 4H687-bA
T22 chain: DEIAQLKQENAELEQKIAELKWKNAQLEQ

[23] = biological target: T23, 4H717-bA
T23 chain: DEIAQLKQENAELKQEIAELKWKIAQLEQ

[24] = biological target: T24, 4H2729-bA
T24 chain: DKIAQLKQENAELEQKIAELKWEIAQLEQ

[25] = biological target: T25, 4H331-bA
T25 chain: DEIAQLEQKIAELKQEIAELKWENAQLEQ

[26] = biological target: T26, 4H607-bA
T26 chain: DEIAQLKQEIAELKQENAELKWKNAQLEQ

[27] = biological target: T27, 4H3112-bA
T27 chain: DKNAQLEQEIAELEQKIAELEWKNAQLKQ

[28] = biological target: T28, 4H3427-bA
T28 chain: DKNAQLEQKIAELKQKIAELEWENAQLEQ

[29] = biological target: T29, 4H2697-bA
T29 chain: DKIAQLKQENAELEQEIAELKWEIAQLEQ

[30] = biological target: T30, 4H3606-bA
T30 chain: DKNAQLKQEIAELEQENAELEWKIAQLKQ

[31] = biological target: T31, 4H3189-bA
T31 chain: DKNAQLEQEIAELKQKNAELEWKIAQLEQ

[32] = biological target: T32, 4H2610-bA
T32 chain: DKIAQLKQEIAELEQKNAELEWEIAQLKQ

[33] = biological target: T33, 4H3010-bN
T33 chain: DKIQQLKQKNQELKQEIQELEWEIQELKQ

[34] = biological target: T34, 4H607-bN
T34 chain: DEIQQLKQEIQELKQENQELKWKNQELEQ

[35] = biological target: T35, 4H370-bA
T35 chain: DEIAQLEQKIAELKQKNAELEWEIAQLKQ

[36] = biological target: T36, 4H1845-bA
T36 chain: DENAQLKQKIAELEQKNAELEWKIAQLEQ

[37] = biological target: T37, 4H3843-bA
T37 chain: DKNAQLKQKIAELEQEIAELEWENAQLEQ

[38] = biological target: T38, 4H462-bA
T38 chain: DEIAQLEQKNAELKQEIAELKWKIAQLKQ

[39] = biological target: T39, 4H3907-bA
T39 chain: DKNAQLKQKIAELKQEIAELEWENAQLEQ

[40] = biological target: T40, 4H470-bA
T40 chain: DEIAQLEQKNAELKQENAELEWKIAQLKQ

[41] = biological target: T41, 4H3961-bA
T41 chain: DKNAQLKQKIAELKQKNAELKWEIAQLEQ

[42] = biological target: T42, 4H363-bA
T42 chain: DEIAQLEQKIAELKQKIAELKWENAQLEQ

[43] = biological target: T43, 4H344-bA
T43 chain: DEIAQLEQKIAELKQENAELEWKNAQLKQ

[44] = biological target: T44, 4H342-bA
T44 chain: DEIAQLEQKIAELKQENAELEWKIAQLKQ

[45] = biological target: T45, 4H496-bA
T45 chain: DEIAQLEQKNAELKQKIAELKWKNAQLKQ

[46] = biological target: T46, 4H2691-bA
T46 chain: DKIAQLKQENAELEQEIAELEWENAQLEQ

[47] = biological target: T47, 4H2745-bA
T47 chain: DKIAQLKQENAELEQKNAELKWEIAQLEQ

[48] = biological target: T48, 4H3129-bN
T48 chain: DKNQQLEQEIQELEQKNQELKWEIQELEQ

[49] = biological target: T49, 4H3632-bA
T49 chain: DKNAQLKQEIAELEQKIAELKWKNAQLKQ

[50] = biological target: T50, 4H3070-bA
T50 chain: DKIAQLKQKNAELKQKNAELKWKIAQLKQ

[51] = biological target: T51, 4H2619-bA
T51 chain: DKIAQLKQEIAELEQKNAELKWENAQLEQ

[52] = biological target: T52, O13-bH
T52 chain: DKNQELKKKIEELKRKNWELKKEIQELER

B1: 4H2442-bA (peptide)
chain: DKIAQLEQKNAELEQEIAELKWEIAQLKQ
interaction score [1]: 0.0444 | interaction score [2]: -1.46 | interaction score [3]: -1.89 | interaction score [4]: -0.829 | interaction score [5]: -1.68 | interaction score [6]: -0.0859 | interaction score [7]: -1.24 | interaction score [8]: -1.64 | interaction score [9]: -1.15 | interaction score [10]: -1.13 | interaction score [11]: -0.212 | interaction score [12]: 1.63 | interaction score [13]: 1.33 | interaction score [14]: 0.831 | interaction score [15]: -0.365 | interaction score [16]: -0.745 | interaction score [17]: 0.5 | interaction score [18]: -0.595 | interaction score [19]: -0.202 | interaction score [20]: 0.238 | interaction score [21]: -1.46 | interaction score [22]: -0.225 | interaction score [23]: -0.902 | interaction score [24]: 1.52 | interaction score [25]: -1.21 | interaction score [26]: -1.4 | interaction score [27]: -0.0125 | interaction score [28]: 0.0308

B2: 4H1845-bA (peptide)
chain: DENAQLKQKIAELEQKNAELEWKIAQLEQ
interaction score [1]: -0.405 | interaction score [29]: -0.601 | interaction score [2]: -0.517 | interaction score [30]: -1.46 | interaction score [3]: -0.306 | interaction score [4]: -0.823 | interaction score [5]: -1.23 | interaction score [6]: -1.75 | interaction score [7]: -0.424 | interaction score [8]: -0.617 | interaction score [9]: -0.795 | interaction score [10]: -0.678 | interaction score [31]: -0.547 | interaction score [11]: -0.124 | interaction score [32]: -0.596 | interaction score [33]: 0.0715 | interaction score [13]: -0.649 | interaction score [14]: -0.0982 | interaction score [15]: 0.247 | interaction score [16]: -1.42 | interaction score [34]: -0.945 | interaction score [17]: -0.341 | interaction score [18]: -1.1 | interaction score [35]: -0.74 | interaction score [19]: 0.69 | interaction score [36]: 0.564 | interaction score [20]: -0.329 | interaction score [21]: -0.752 | interaction score [37]: -0.572 | interaction score [22]: -0.612 | interaction score [23]: -0.827 | interaction score [38]: -0.986 | interaction score [24]: -0.636 | interaction score [25]: -0.344 | interaction score [26]: -1.7 | interaction score [27]: -0.795 | interaction score [28]: -0.783

B3: 4H2619-bA (peptide)
chain: DKIAQLKQEIAELEQKNAELKWENAQLEQ
interaction score [39]: -0.505 | interaction score [40]: -0.832 | interaction score [41]: -0.981 | interaction score [42]: -0.409 | interaction score [43]: 2.12 | interaction score [44]: 1.56 | interaction score [45]: -0.573 | interaction score [46]: -0.41 | interaction score [47]: -0.393 | interaction score [48]: -2.48 | interaction score [49]: -1.09 | interaction score [50]: -0.983 | interaction score [51]: 0.00432

B4: 4H687-bA (peptide)
chain: DEIAQLKQENAELEQKIAELKWKNAQLEQ
interaction score [1]: -0.491 | interaction score [2]: -0.595 | interaction score [5]: -1.51 | interaction score [7]: -0.624 | interaction score [8]: 1.07 | interaction score [9]: -1.57 | interaction score [52]: 1.07 | interaction score [16]: -0.749 | interaction score [21]: -0.947 | interaction score [22]: -1.03 | interaction score [23]: -1.32
